This note sets out measurements from patent publication US20250034594A1, “RNA-GUIDED GENOME RECOMBINEERING AT KILOBASE SCALE” (THE BOARD OF TRUSTEES OF THE LELAND STANFORD JUNIOR …, priority 2021, published 2025).

What all share (assay type): cell-based
One test deals with gene editing with Cas9. In words: Screen of 322 new SSAP proteins, gene editing activity with Cas9 (Table 5). Further details: Cas9 with SSAP activity: scale not given here. The source says: (§1) 322 new SSAP proteins were identified from sequence data, synthesized, and screened for activity with Cas9 and dCas9. Gene editing activities are shown below in Table 5, followed by amino acid sequences of the proteins.

Another test relates to gene editing with dCas9. In words: Screen of 322 new SSAP proteins, gene editing activity with dCas9 (Table 5). Further details: dCas9 with SSAP activity: scale not given here.
Text: as §1

Test [1] has as its system gene editing with Cas9 and dCas9. In words: Screen of 322 new SSAP proteins, activity across all experiments (Cas9 and dCas9, Table 5). Details: scale not given here.
Text: as §1

B1: SSAP_285: SEQ ID NO: 454; Chitinophaga lutea (protein, listed as Chitinophaga lutea)
chain: SNVNAPAAPVKSKIEVLKDIMNAPSVQEQFQNALRENSGVFVASVIDLFNSDTYLQNCEPKQVVMECLKAATLKLPINKNLGFAYVVPYKSNGKQIPQFQIGYKGYIQLAMRTGQYRIINADKVYEGEYRTKNKLTGEFDLSGTATSETVVGYFAHIEMLNGFAKTLYMTKEKVAAHAKKYSKSFGKETSPWHTEFDAMALKTVLRNLLSHYGYLSVEMMGAMNADIESDQVGSEVSQTINDKANKQEMTFDDAEVVDDDEKEQNPI
B1: in the test on gene editing with Cas9, the “Cas9 with SSAP activity” value is −1.178 and the “Cas9 with SSAP activity (normalized)” value is given as −0.366. Also, in the test with gene editing with dCas9, the “dCas9 with SSAP activity” value was −3.704 and the “dCas9 with SSAP activity (normalized)” value is −0.608. Moreover, the “Activity across all experiments” value in test [1] is on record as −2.441.

B2: SSAP_21: SEQ ID NO: 190; Cellulosilyticum lentocellum (protein, listed as Cellulosilyticum lentocellum)
chain: SDKKELVLKETHSRLNQLLATKMEAMPKDFNQTRFLQNCMTVLQDTKGIENCHPVSIARTLLKGAFLGLDFFQRECYAIPYGGELQFQTDYKGETKMAKKYSIRDIKDIYAKVVRKGDEFKEEIVAGQQVVDFKPLPFNDAEIIGAFAVVLYQDGGMEYETMSTKQIEGIRDNFSKMKNGLMWTKTPEEAYKKTVLRRLTKKIEKDFASIDQAKAYEESSDMQFKQDEQKQDAKDPFADAVDVEFTEETEGQVRLDGEADGAK
Consider B2, for which, in the test on gene editing with Cas9, the “Cas9 with SSAP activity” value is reported as −0.774 and the “Cas9 with SSAP activity (normalized)” value is recorded as −0.320. Further, in the test with gene editing with dCas9, the “dCas9 with SSAP activity” value is −3.610 and the “dCas9 with SSAP activity (normalized)” value is on record as −0.537. Also, the “Activity across all experiments” value in test [1] is reported as −2.192.

B3: SSAP_108: SEQ ID NO: 277; Rummeliibacillus stabekisii (protein, listed as Rummeliibacillus stabekisii)
chain: ATTTELKEQMKQQAPAQTKKPKTIEDYMKQMAPAMAEALPKHMSVDRLTRLAMTTIRTTPALRQADVSSLLGAVMQAAQLGLEPGLLGQCYLLPFKNKKKAITEVQFIIGYKGMIDLARRSGHIQSIYSHAVFENDVFEYELGLEPKLKHTPTMSTDKGAFIGAYAVAHFKDGGHQFEFMSKADIEKRKGRSKAANSDYSPWLTDYEEMAKKTVIRHMWKYLPISVEMQEQVAYDEGVGRSIKDVTPEEDVFVQAPDEILEAEATEA
For B3, in the test on gene editing with Cas9, the “Cas9 with SSAP activity” value is 0.069 and the “Cas9 with SSAP activity (normalized)” value is 0.068. Also, in the test on gene editing with dCas9, the “dCas9 with SSAP activity” value is on record as −3.682 and the “dCas9 with SSAP activity (normalized)” value was −0.539. For the same molecule, in test [1], the “Activity across all experiments” value was −1.807.

B4: SSAP_121: SEQ ID NO: 290; Bacillus sp. JAS24-2 (protein, listed as Bacillus sp.)
chain: ATNKDVKNQLANRKASAPVTTEQTVEAYMKKMGPKMAEVLPKHMDMDRMSRIALTTIRTNPKLLECSVPSLMGAVMSAVQLGLEPGLLGHCYILPYKSEATFIIGYKGMIDLARRSGHIQSIYAHAVYENDEFEYELGLHPQLKHKPSFGDRGEFIGAYAVAHFKDGGHQMEFMPKSEIEKRRGRSASANSNYSPWKTDYEEMAKKTVVRYMFKYLPISIEVQSQAQQDEVVRKDITEEPEFIEVEQQTEGDGQGDFVIEGE
Take B4: in the test on gene editing with Cas9, the “Cas9 with SSAP activity” value is listed as −0.279 and the “Cas9 with SSAP activity (normalized)” value is −0.275. Also, in the test with gene editing with dCas9, the “dCas9 with SSAP activity” value was 1.664 and the “dCas9 with SSAP activity (normalized)” value was determined as 1.531. The “Activity across all experiments” value in test [1] is reported as 0.692.

B5: SSAP_160: SEQ ID NO: 329; Veillonellaceae bacterium DNF00626 (protein)
chain: KTTGGLQQQQQQQAQALQNGGTTLKGYLQAMMPEIKKALPTVMTPERFTRIVMTTISTNPALQNCTPQSFLGAVMQAAQLGVEPNTPLGQAYLIPYGNQVQFQLGYKGLIDLAYRSGEVQSLQAHEVYQNDTFEYELGLNPKLKHIPALTNRGDVILYYAVIKFKNGGEGFEVMSKEDVEAFAKSKSKTYGRGPWQTDFDEMAKKTVLKKVLKYAPMKTDFIRAVATDETVKSSVAEQMADLPDETVTIDTEAQVVVDKETGEVKS
modifications: Veillonellaceae bacterium DNF00626
Regarding B5, in the test with gene editing with Cas9, the “Cas9 with SSAP activity” value is on record as 1.888 and the “Cas9 with SSAP activity (normalized)” value is listed as 0.942. In addition, in the test with gene editing with dCas9, the “dCas9 with SSAP activity” value is −3.690 and the “dCas9 with SSAP activity (normalized)” value is given as −0.763. For the same molecule, the “Activity across all experiments” value in test [1] is reported as −0.901.

B6: SSAP_318: SEQ ID NO: 487; Shewanella morhuae (protein, listed as Shewanella morhuae)
chain: QTAQVKLSVPHQQVYQDNFNYLSSQVVGHLVDLNEEIGYLNQIVFNSLSTASPLDVAAPWSVYGLLLNVCRLGLSLNPEKKLAYVMPSWSETGEIIMKLYPGYRGEIAIASNFNVIKNANAVLVYENDHFRIQAATGEIEHFVTSLSIDPRVRGACSGGYCRSVLMDNTIQISYLSIEEMNAIAQNQIEANMGNTPWNSIWRTEMNRVALYRRAAKDWRQLIKATPEIQSALSDTEY
In the case of B6, in the test on gene editing with Cas9, the “Cas9 with SSAP activity” value is 0.045 and the “Cas9 with SSAP activity (normalized)” value amounted to 0.060. In the test with gene editing with dCas9, the “dCas9 with SSAP activity” value is reported as −3.743 and the “dCas9 with SSAP activity (normalized)” value is −0.597. For the same molecule, in test [1], the “Activity across all experiments” value was −1.849.

B7: SSAP_133: SEQ ID NO: 302; Lacrimispora celerecrescens (protein, listed as Lacrimispora celerecrescens)
chain: SDVKQELEKRAAGGGSQSQSVKLTKNMTIVDMVKALEPEIKRALPSILTPERFTRMALSAINNTPKLGECTPMSFIAALMNAAQLGLEPNTPLGQAYLIPYKNKGVLECQFQLGYRGLIDLAYRNDRMQSIEAQVVYENDEFSYELGLHPSLTHRPSFDEPGEIRAFYAIFRLDNGGFRFEVMSKSYVDAYATKYSKAFTSDFSPWKNNYEGMAKKTVIKQLLKYAPIKSDFQKAITLDETVKTQLSIDMSEIRNECLPDTSENSEVA
For B7, in the test with gene editing with Cas9, the “Cas9 with SSAP activity” value is on record as −4.946 and the “Cas9 with SSAP activity (normalized)” value was −1.095. In the test on gene editing with dCas9, the “dCas9 with SSAP activity” value is −3.605 and the “dCas9 with SSAP activity (normalized)” value is −0.658. In test [1], the “Activity across all experiments” value was −4.276.

B8: SSAP_1: SEQ ID NO: 172 (protein)
chain: ATNESLKNQLSTKKETGLGSAGNTIKGLMNSPAIKKRFEEVLKQRAPQYMSSIVNLVNSDINLKKCDQMSVVASCMVAATLDLPVDKNLGYAWVVPYGNKAQFQLGYKGYVQLALRTGQYKSINVIEIHEGELIDWNPLTEELKIDFSKKESDAVIGYAGYFELLNGFKKSTYWTKEQITKHKNKFSKSDFGWKKDFDAMARKTVLRNMLSKWGILSIEMQNAYTADQGIIKNEIIETGEVKENIEYIEADFESYEDNSIEEGGANE
As for B8, in the test on gene editing with Cas9, the “Cas9 with SSAP activity” value was −4.919 and the “Cas9 with SSAP activity (normalized)” value was −0.814. Also, in the test with gene editing with dCas9, the “dCas9 with SSAP activity” value is −3.622 and the “dCas9 with SSAP activity (normalized)” value is recorded as −0.496. In addition, the “Activity across all experiments” value in test [1] was −4.270.
